Usually Kd stands for the free concentration of one partner at which half of the binding sites on the other are occupied at equilibrium, for simple one-to-one binding. Read a low Kd as a tighter complex.

In series [1] the target is T1, tyrosyl-DNA phosphodiesterase 1 (Tdp1) (Homo sapiens, UniProt Q9NUW8 1-608). In words: competition.
The target of series [2] is T1, tyrosyl-DNA phosphodiesterase 1 (Tdp1). Description: SPR. On the technique in general: Surface plasmon resonance follows binding to a sensor surface in real time, without labels.
Series [3] has the same target. In words: fluorescence anisotropy. Background: In fluorescence polarisation assays a small probe gives low polarisation when free and higher when bound to something large.
Series [4] shares this target. Description: fluorescence anisotropy. This is another data set of the same source.
The target is the same in series [5]. In words: SPR. This is another data set of the same source.

T1 sequence (Q9NUW8 whole entry): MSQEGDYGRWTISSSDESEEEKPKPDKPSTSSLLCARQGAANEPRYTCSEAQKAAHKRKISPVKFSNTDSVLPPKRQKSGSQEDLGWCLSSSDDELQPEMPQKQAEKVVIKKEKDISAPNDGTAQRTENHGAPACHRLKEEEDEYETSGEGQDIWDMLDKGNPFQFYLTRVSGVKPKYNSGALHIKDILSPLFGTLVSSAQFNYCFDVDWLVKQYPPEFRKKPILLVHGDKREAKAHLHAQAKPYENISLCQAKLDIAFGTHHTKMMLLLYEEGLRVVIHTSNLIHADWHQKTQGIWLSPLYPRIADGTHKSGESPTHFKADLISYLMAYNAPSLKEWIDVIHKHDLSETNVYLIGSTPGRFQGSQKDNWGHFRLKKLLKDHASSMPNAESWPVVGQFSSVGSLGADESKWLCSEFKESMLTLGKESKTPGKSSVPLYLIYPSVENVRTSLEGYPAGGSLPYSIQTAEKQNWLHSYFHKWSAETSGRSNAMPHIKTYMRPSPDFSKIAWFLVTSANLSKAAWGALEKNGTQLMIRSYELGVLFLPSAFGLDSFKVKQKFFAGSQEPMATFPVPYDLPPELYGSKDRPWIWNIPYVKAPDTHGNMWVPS

B1: 50p (ssDNA)
DNA: AAGATCTAAAAGACTTAAGGATCTAAAAGACTTGAAGATCTAAAAGACTT
modifications: 3'-phosphate
Turning to B1, in series [1], the binding signal was ~10 fold higher affinity than 14p.

B2: p14B (ssDNA)
DNA: GATCTAAAAGACTT
modifications: 5'-phosphate; 3'-biotin
For B2, the binding result in series [2] is listed as “no binding”.

B3: 15(pS)F (ssDNA)
DNA: GATCTAAAAGACTTG
modifications: 3'-6-FAM via phosphorothioate (non-hydrolyzable)
B3: the Kd in series [3] turned out to be 0.0024 µM.

B4: F14p (ssDNA)
DNA: GATCTAAAAGACTT
modifications: 5'-6-FAM via phosphodiester; 3'-phosphate
As to B4, the affinity in series [3], expressed as Kd, was 0.0341 µM. This Kd lies about 14-fold higher than the previous one.

B5: F14 (ssDNA)
DNA: GATCTAAAAGACTT
modifications: 5'-6-FAM via phosphodiester; 3'-OH
In series [4], B5 gave a dissociation constant (Kd) of 0.0769 µM.

B6: B14p (ssDNA)
DNA: GATCTAAAAGACTT
modifications: 5'-biotin; 3'-phosphate
In series [5], B6 showed a Kd of 0.057 µM.

B7: F(pS)15 (ssDNA)
DNA: GATCTAAAAGACTTG
modifications: 5'-6-FAM via phosphorothioate; 3'-OH
The molecule B7 returned a Kd in series [3] of 0.0263 µM.

B8: F15 (ssDNA)
DNA: GATCTAAAAGACTTG
modifications: 5'-6-FAM via phosphodiester; 3'-OH
As for B8, the affinity in series [3], expressed as Kd, was 0.0392 µM. This Kd and that of the molecule before are within 1.5-fold of each other.

The values are drawn from article PMC2853120.
